Reference: PMC12529666, “Dysregulation of AGO2-miRNA dynamics underlies the AGO2-associated Lessel–Kreienkamp syndrome”

What was measured:
[1] = molecular target: T1, AGO2 T357M (Homo sapiens, UniProt Q9UKV8 1-859, T357M;S387D;S824A;S828D;S831D;S834A); experiment: northern blot of purified complex; ~1:1 AGO2:miR-122; 30 mM Tris pH 8.0, 100 mM KOAc, 2 mM MgOAc, 0.5 mM TCEP, 0.005% NP-40, 0.01 mg/ml yeast tRNA, room temperature, 2 h (equilibrium); association buffer listed without Mg; details: protein: recombinant; tags: His6 (N-terminal, pFastBac HTA)
[2] = molecular target: T2, AGO2 F182del (Homo sapiens, UniProt Q9UKV8 1-859, S387D;S824A;S828D;S831D;S834A;del182-182); experiment: as above; details: protein: recombinant; tags: His6 (N-terminal, pFastBac HTA)
[3] = molecular target: T3, AGO2 L192P (Homo sapiens, UniProt Q9UKV8 1-859, L192P;S387D;S824A;S828D;S831D;S834A); experiment: as above; details: protein: recombinant; tags: His6 (N-terminal, pFastBac HTA)
[4] = molecular target: T4, AGO2 A367P (Homo sapiens, UniProt Q9UKV8 1-859, A367P;S387D;S824A;S828D;S831D;S834A); experiment: as above; details: protein: recombinant; tags: His6 (N-terminal, pFastBac HTA)
[5] = molecular target: T1, AGO2 T357M; experiment: pull-down; recovery similar to WT; 30 mM Tris pH 8.0, 100 mM KOAc, 2 mM MgOAc, 0.5 mM TCEP, 0.005% NP-40, 0.01 mg/ml yeast tRNA, room temperature, 2 h (equilibrium); association buffer listed without Mg; details: protein: recombinant; tags: His6 (N-terminal, pFastBac HTA); label: biotin on capture oligo; guide paired in part with capture oligo
[6] = molecular target: T2, AGO2 F182del; experiment: as above; details: protein: recombinant; tags: His6 (N-terminal, pFastBac HTA); label: biotin on capture oligo; guide paired in part with capture oligo
[7] = molecular target: T3, AGO2 L192P; experiment: as above; details: protein: recombinant; tags: His6 (N-terminal, pFastBac HTA); label: biotin on capture oligo; guide paired in part with capture oligo
[8] = molecular target: T4, AGO2 A367P; experiment: as above; details: protein: recombinant; tags: His6 (N-terminal, pFastBac HTA); label: biotin on capture oligo; guide paired in part with capture oligo
[9] = molecular target: T3, AGO2 L192P; experiment: filter binding (association); AGO2-miR-122 0.25-1.5 nM; 30 mM Tris pH 8.0, 100 mM KOAc, 2 mM MgOAc, 0.5 mM TCEP, 0.005% NP-40, 0.01 mg/ml yeast tRNA, room temperature, 2 h (equilibrium); association buffer listed without Mg; details: protein: recombinant; tags: His6 (N-terminal, pFastBac HTA); label: 32P 5' on target; guide g2-g8 paired with target ACACUCC; remainder unpaired
[10] = molecular target: T4, AGO2 A367P; experiment: as above; details: protein: recombinant; tags: His6 (N-terminal, pFastBac HTA); label: 32P 5' on target; guide g2-g8 paired with target ACACUCC; remainder unpaired
[11] = molecular target: T1, AGO2 T357M; experiment: filter binding (dissociation); 300 nM unlabeled target chase; 30 mM Tris pH 8.0, 100 mM KOAc, 2 mM MgOAc, 0.5 mM TCEP, 0.005% NP-40, 0.01 mg/ml yeast tRNA, room temperature, 2 h (equilibrium); association buffer listed without Mg; details: protein: recombinant; tags: His6 (N-terminal, pFastBac HTA); label: 32P 5' on target; guide g2-g8 paired with target ACACUCC; remainder unpaired
[12] = molecular target: T4, AGO2 A367P; experiment: as above; details: protein: recombinant; tags: His6 (N-terminal, pFastBac HTA); label: 32P 5' on target; guide g2-g8 paired with target ACACUCC; remainder unpaired
[13] = molecular target: T1, AGO2 T357M; experiment: filter binding; 2 mM Mg2+; 30 mM Tris pH 8.0, 100 mM KOAc, 2 mM MgOAc, 0.5 mM TCEP, 0.005% NP-40, 0.01 mg/ml yeast tRNA, room temperature, 2 h (equilibrium); association buffer listed without Mg; details: protein: recombinant; tags: His6 (N-terminal, pFastBac HTA); label: 32P 5' on target; guide g2-g8 paired with target ACACUCC; remainder unpaired
[14] = molecular target: T3, AGO2 L192P; experiment: filter binding (dissociation); 300 nM unlabeled target chase; slowest release; 30 mM Tris pH 8.0, 100 mM KOAc, 2 mM MgOAc, 0.5 mM TCEP, 0.005% NP-40, 0.01 mg/ml yeast tRNA, room temperature, 2 h (equilibrium); association buffer listed without Mg; details: protein: recombinant; tags: His6 (N-terminal, pFastBac HTA); label: 32P 5' on target; guide g2-g8 paired with target ACACUCC; remainder unpaired

T1 sequence (Q9UKV8 whole entry T357M/S387D/S824A/S828D/S831D/S834A): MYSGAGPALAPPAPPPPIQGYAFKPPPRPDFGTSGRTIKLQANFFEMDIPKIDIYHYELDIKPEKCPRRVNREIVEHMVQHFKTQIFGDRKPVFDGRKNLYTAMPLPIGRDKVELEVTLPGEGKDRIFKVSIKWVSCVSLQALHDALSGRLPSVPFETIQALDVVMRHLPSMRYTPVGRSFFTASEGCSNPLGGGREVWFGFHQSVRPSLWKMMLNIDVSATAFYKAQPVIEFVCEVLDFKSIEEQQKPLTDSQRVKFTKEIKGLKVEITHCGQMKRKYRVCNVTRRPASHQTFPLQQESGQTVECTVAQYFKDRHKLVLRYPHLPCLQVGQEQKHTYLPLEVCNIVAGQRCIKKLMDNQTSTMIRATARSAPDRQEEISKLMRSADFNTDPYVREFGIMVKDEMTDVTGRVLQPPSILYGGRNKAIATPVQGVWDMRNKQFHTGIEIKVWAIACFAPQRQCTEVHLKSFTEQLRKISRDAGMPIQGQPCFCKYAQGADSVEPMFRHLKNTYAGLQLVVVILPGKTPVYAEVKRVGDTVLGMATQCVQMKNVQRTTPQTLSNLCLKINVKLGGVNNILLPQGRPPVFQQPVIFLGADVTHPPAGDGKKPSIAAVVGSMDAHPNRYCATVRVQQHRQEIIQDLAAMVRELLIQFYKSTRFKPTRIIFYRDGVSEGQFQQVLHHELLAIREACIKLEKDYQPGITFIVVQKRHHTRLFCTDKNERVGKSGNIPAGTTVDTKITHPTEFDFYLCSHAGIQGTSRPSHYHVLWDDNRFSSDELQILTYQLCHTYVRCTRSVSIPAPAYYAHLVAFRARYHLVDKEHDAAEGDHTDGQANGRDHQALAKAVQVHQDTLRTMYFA
T3 sequence (Q9UKV8 whole entry L192P/S387D/S824A/S828D/S831D/S834A): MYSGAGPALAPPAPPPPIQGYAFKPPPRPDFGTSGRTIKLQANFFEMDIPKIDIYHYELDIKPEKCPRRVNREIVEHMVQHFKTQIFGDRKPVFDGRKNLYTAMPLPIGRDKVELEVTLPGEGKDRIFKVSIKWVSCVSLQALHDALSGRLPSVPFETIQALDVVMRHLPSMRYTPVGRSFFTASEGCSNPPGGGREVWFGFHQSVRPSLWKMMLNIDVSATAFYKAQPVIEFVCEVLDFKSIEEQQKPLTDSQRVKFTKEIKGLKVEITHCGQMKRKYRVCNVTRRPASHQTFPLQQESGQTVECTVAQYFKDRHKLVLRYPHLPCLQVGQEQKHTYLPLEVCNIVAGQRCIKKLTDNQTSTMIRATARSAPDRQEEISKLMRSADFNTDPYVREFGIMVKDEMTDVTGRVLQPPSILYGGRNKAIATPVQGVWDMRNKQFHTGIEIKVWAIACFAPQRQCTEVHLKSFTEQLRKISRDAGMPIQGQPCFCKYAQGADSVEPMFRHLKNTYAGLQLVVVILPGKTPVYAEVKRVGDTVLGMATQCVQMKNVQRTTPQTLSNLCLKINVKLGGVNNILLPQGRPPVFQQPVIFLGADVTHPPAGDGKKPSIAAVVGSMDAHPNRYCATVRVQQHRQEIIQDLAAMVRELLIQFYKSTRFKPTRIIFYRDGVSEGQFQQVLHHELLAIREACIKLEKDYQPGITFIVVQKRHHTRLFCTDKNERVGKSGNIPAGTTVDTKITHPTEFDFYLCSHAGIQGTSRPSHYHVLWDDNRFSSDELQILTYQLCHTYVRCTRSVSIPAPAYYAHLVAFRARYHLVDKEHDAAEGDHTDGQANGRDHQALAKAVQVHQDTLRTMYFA
T4 sequence (Q9UKV8 whole entry A367P/S387D/S824A/S828D/S831D/S834A): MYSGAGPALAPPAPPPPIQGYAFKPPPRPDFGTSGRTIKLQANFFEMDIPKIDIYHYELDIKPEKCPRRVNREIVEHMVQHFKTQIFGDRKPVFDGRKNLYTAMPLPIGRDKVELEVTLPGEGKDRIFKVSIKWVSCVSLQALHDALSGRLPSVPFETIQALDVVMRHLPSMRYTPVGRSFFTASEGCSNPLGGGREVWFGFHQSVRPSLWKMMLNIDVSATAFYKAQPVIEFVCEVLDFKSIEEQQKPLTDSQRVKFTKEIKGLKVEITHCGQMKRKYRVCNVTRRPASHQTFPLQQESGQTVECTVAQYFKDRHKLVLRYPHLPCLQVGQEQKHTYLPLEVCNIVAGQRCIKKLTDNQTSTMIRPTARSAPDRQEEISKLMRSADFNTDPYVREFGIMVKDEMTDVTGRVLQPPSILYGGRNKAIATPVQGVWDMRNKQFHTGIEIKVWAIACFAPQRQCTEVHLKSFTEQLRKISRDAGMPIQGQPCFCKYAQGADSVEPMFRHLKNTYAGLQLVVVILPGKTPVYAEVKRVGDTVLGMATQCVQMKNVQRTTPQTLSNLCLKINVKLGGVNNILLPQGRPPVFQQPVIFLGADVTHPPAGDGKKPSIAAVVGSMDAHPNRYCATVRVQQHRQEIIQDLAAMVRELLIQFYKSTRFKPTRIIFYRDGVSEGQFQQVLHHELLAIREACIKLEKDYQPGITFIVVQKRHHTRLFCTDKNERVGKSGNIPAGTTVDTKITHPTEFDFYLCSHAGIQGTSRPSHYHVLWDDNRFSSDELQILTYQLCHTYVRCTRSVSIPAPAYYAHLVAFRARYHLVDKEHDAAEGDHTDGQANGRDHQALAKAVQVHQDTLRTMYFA
T2 sequence (Q9UKV8 other isoform, or with tags, fused parts or gaps S387D;S824A;S828D;S831D;S834A;del182-182): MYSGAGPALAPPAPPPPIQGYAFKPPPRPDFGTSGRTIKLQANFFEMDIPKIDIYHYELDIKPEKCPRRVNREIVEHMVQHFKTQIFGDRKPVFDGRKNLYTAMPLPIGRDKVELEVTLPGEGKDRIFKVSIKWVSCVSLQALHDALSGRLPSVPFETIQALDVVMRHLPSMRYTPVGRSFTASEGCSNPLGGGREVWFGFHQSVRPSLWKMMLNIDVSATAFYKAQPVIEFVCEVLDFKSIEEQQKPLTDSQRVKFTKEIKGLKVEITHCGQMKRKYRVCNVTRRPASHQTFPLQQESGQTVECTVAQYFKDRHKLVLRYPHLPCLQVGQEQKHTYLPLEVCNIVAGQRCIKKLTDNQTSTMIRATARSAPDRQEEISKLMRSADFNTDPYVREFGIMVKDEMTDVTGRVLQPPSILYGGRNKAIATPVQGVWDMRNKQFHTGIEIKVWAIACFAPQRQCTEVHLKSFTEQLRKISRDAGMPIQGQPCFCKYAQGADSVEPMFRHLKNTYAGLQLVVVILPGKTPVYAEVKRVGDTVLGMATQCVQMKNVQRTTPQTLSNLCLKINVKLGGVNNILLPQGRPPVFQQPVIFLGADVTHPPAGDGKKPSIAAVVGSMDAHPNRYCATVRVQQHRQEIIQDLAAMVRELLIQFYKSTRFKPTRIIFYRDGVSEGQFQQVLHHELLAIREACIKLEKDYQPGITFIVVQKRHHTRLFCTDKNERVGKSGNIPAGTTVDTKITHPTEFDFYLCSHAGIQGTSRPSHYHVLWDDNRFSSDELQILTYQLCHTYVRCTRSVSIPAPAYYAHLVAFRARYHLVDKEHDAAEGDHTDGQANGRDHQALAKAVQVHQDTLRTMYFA

## UGGAGUGUGACAAUGGUGUUUG (ssRNA, 5' phosphate) [miR-122 guide RNA]
[1]
  binding result: binds
[2]
  binding result: binds
[3]
  binding result: binds
[4]
  binding result: binds

B1: miR-122 guide / biotinylated capture oligo (DNA:RNA)
RNA: UGGAGUGUGACAAUGGUGUUUG
DNA: TCTCGTCTAACCATGCCAACACTCCAACTCT
modifications: 5' phosphate on guide
[5]
  binding result: binds
[6]
  binding result: binds
[7]
  binding result: binds
[8]
  binding result: binds

B2: miR-122 guide / seed-matched target RNA (dsRNA)
RNA 1: UGGAGUGUGACAAUGGUGUUUG
RNA 2: AAAAAAAAAAAAACACUCCUAA
modifications: 5' phosphate on guide
[9]
  binding signal: > 5 fold slower association than WT (at least)
[10]
  binding signal: > 5 fold slower association than WT (at least)
[11]
  binding signal: ~20 fold slower koff (slow phase) vs near-WT fast phase
[12]
  binding signal: ~20 fold slower koff (slow phase) vs near-WT fast phase
[13]
  binding signal: 1.8 fold lower KD than WT (not significant)
[14]
  binding signal: ~20 fold slower koff (slow phase) vs near-WT fast phase
